3 proteins from publication PMC10318527, “Utilization of dietary mixed-linkage β-glucans by the Firmicute Blautia producta” (The Journal of Biological Chemistry, 2023) can be followed below.

Substrate in data set [1]: OC[C@H]1O[C@@H](O[C@H]2[C@H](O)[C@@H](O)[C@H](O[C@H]3[C@H](O)[C@@H](O)C(O)O[C@@H]3CO)O[C@@H]2CO)[C@H](O)[C@@H](O)[C@@H]1O
In words: Phosphorolysis kinetics of BpGH94MLG (PAHBAH assay). It is filed as biochemical, Blautia producta ATCC 27340. The following applies: other: phosphorolytic reaction, pH 6.5, 37.0 °C. As for the experimental part: (§1) TLC was used for analyzing enzymatic actions. […] Kinetics parameters for BpGH94MLG were determined with G4G3G, G4G4G3G and cellotriose, following a p-hydroxybenzoic acid hydrazide (PAHBAH) reducing sugar assay ([69]).

Substrate in data set [2]: OC[C@H]1O[C@@H](O[C@H]2[C@H](O)[C@@H](O)[C@H](O[C@H]3[C@H](O)[C@@H](O)[C@H](O[C@H]4[C@H](O)[C@@H](CO)OC(O)[C@@H]4O)O[C@@H]3CO)O[C@@H]2CO)[C@H](O)[C@@H](O)[C@@H]1O
The data set is described as above. Type of data set: biochemical, Blautia producta ATCC 27340. The settings on record: other: phosphorolytic reaction, pH 6.5, 37.0 °C. As to the method:
as §1

Substrate in data set [3]: OC[C@H]1O[C@@H](O[C@H]2[C@H](O)[C@@H](O)[C@H](O[C@H]3[C@H](O)[C@@H](CO)OC(O)[C@@H]3O)O[C@@H]2CO)[C@H](O)[C@@H](O)[C@@H]1O
The description is as above. It is filed as biochemical, Blautia producta ATCC 27340. The settings on record: other: phosphorolytic reaction, pH 6.5, 37.0 °C. As to the method: as §1

Substrate in data set [4]: OC[C@H]1O[C@@H](O[C@H]2[C@H](O)[C@@H](O)[C@H](O[C@H]3[C@H](O)[C@@H](O)[C@H](O[C@H]4[C@H](O)[C@@H](CO)OC(O)[C@@H]4O)O[C@@H]3CO)O[C@@H]2CO)[C@H](O)[C@@H](O)[C@@H]1O
Description: purified protein, by the assay type. The settings on record: other: PAHBAH assay, 100 mM HEPES pH 6.5, 37 °C. It is filed as biochemical, Blautia producta ATCC 27340.

Substrate in data set [5]: OC[C@H]1O[C@@H](O[C@H]2[C@H](O)[C@@H](O)[C@H](O[C@H]3[C@H](O)[C@@H](CO)OC(O)[C@@H]3O)O[C@@H]2CO)[C@H](O)[C@@H](O)[C@@H]1O
In words: purified protein, by the assay type. Type of data set: biochemical, Blautia producta ATCC 27340. The settings on record: other: PAHBAH assay, 100 mM HEPES pH 6.5, 37 °C.

Substrate in data set [6]: OC[C@H]1O[C@@H](O[C@@H]2[C@@H](O)[C@H](O[C@H]3[C@H](O)[C@@H](CO)OC(O)[C@@H]3O)O[C@H](CO)[C@H]2O)[C@H](O)[C@@H](O)[C@@H]1O
Description: purified protein, by the assay type. It is filed as biochemical, Blautia producta ATCC 27340. The following applies: other: PAHBAH assay, 100 mM HEPES pH 6.5, 37 °C.

Substrate in data set [7]: OC[C@H]1O[C@@H](O[C@H]2[C@H](O)[C@@H](O)[C@H](O[C@H]3[C@H](O)[C@@H](O)C(O)O[C@@H]3CO)O[C@@H]2CO)[C@H](O)[C@@H](O)[C@@H]1O
In words: purified protein, by the assay type. The following applies: other: PAHBAH assay, 100 mM HEPES pH 6.5, 37 °C.

Substrate in data set [8]: O=C[C@H](O)[C@@H](O)[C@H](O[C@@H]1O[C@H](CO)[C@@H](O)[C@H](O)[C@H]1O)[C@H](O)CO
Description: purified protein, by the assay type. The following applies: other: PAHBAH assay, 100 mM HEPES pH 6.5, 37 °C.

Substrate in data set [9]: OC[C@H]1O[C@@H](O[C@H]2[C@H](O)[C@@H](O)[C@H](O[C@H]3[C@H](O)[C@@H](O)[C@H](O[C@H]4[C@H](O)[C@@H](CO)OC(O)[C@@H]4O)O[C@@H]3CO)O[C@@H]2CO)[C@H](O)[C@@H](O)[C@@H]1O
Description: purified protein, by the assay type. The settings on record: other: PAHBAH assay, 100 mM HEPES pH 6.5, 37 °C.

Substrate in data set [10]: OC[C@H]1O[C@@H](O[C@H]2[C@H](O)[C@@H](O)[C@H](O[C@H]3[C@H](O)[C@@H](CO)OC(O)[C@@H]3O)O[C@@H]2CO)[C@H](O)[C@@H](O)[C@@H]1O
In words: purified protein, by the assay type. The settings on record: other: PAHBAH assay, 100 mM HEPES pH 6.5, 37 °C.

Substrate in data set [11]: OC[C@H]1O[C@@H](O[C@H]2[C@H](O)[C@@H](O)[C@H](O[C@H]3[C@H](O)[C@@H](O)[C@H](O[C@H]4[C@H](O)[C@@H](O)C(O)O[C@@H]4CO)O[C@@H]3CO)O[C@@H]2CO)[C@H](O)[C@@H](O)[C@@H]1O
Description: purified protein, by the assay type. The settings on record: other: PAHBAH assay, 100 mM HEPES pH 6.5, 37 °C.

Substrate in data set [12]: OC[C@H]1O[C@@H](O[C@H]2[C@H](O)[C@@H](CO)OC(O)[C@@H]2O)[C@H](O)[C@@H](O)[C@@H]1O
In words: purified protein, by the assay type. The settings on record: other: PAHBAH assay, 100 mM HEPES pH 6.5, 37 °C.

Substrate in data set [13]: OC[C@H]1O[C@@H](O[C@@H]2[C@@H](O)[C@H](O[C@H]3[C@H](O)[C@@H](CO)OC(O)[C@@H]3O)O[C@H](CO)[C@H]2O)[C@H](O)[C@@H](O)[C@@H]1O
In words: purified protein, by the assay type. The settings on record: other: PAHBAH assay, 100 mM HEPES pH 6.5, 37 °C.

B1: BpGH94MLG (Blautia producta) (protein)
chain: MKYGYFDEEKKEYVITRPDTPAPWVNYLGSPEYGAIISNNAGGYSFEKSGANGRILRYVFNNFDQPGRYIYIRDQENKDFWSASWQPVGKPQDVYQCECRHGTAYTNMRAEYSEISSEVLYYVPLGAAYEVWRLRLTNNSDRPRNLCVTGYAEFTNNSNYEQDQVNLQYSQFITQTAFRGNRICQMIHANLDQLEPGKDVDDKQVTERFFGLAGNPVTSWCGDKDGFLGRYHGYDAPKGVIEGKLSCLPNYNGNGCGALSSDFVLKPGEAKEVVFVLGMKKDAEVEEILKRYEIPETVCREEFHKLVKYWHGYLSHFQVKTPSREFNTMVNTWNAYNCFMTFIWSRAASFIYCGLRNGYGYRDTVQDIQGIIHLAPDMALEKIRFMLSAQADNGGGLPLVKFTHNPGHEDTPDDASYVKETGHPAYRADDALWLFPTVYKYIAETGNMDFIDEVIPFANRGKATVYEHLKRAVKFSMDHLGRHGMPAGLYADWNDCLRLGKDGESTFVAMQFYYAMTILKKFAKYKKDVEYMEFLCERQKKLEELIQKFCWDEGRFIRGFTENGEIIGKSTDPEANMWLNPQSWAVISGVANEEQADRVLDVVEKRLNTEYGLVLMDPPYHAHAFDGALAVIYNPGTKENAGIFSQSQGWIILAEALRGHGERAFTYFMENAPAAQNDRADIRKLEPYCYGQFTEGKDSPNFGRSHVHWLTGTASTIMVGCVEGILGIRPDFYGIRLAPAIPKEWEEYEVEKDFRGCHLHIKVKNPGHVESGCEKLVVNGNVVTGSYIPADLLTEQTDIELFIS
With B1, in data set [1], the Km (in general, the concentration of substrate that gives half-maximal velocity) turned out to be 28 ± 4 µM; the catalytic constant (kcat) (usually the number of substrate molecules converted per active site and unit of time at saturation) is 0.67 ± 0.021 s⁻¹; the kcat/Km – broadly, the turnover number divided by the Michaelis constant – is 23900 M⁻¹ s⁻¹. In data set [2], the Km was 21 ± 2 µM, the kcat is 1.21 ± 0.014 s⁻¹ and the kcat/Km worked out at 57600 M⁻¹ s⁻¹. In addition, in [3], the Km worked out at 52 ± 5 µM, the kcat was 1.86 ± 0.022 s⁻¹ and the kcat/Km amounted to 35700 M⁻¹ s⁻¹.

B2: BpGH3-AR8MLG (Blautia producta ATCC 27340 = DSM 2950) (protein)
chain: MKLKNKTFTGTTSNEVTARETENRKLARLAAAEGFVLLKNQDHILPLKKGIKLGLYGAGAVKTIKGGTGSGDVNERECVNICQGLENAGYEITSSAWLEAYASLYEETRLKWRDEILGKLEAYDNNFFEAYSTTPFFMPCGNPVDVDKASDDGADTAIYVLSRIAGENADRHDTEGDYYISAEEKALIAQLSKAYDSLVLVINTGGLVDLAFVQEFDNIKAVLQFVQAGQEGGSAFADVVSGKVTPSGKLADTWAFDYKDYPNSETFSFKNGDVNTEKYQEGIYVGYRYFDTFDVPVLYPFGFGLSYTDFMICTEEIKTVNTESGKPEIAVTVKVTNTGDTYCGKEVVQIYVSCPQGKLAKEYRRLAGFAKTEELKPGESCRITITFPVYQLASFHEENAAWVLEEGTYGVWTGNSIQGAKLAGSLCVDKDAILVQCEHICPVKEELTELTPDSSRMKEKEAAWLEKAAGLPSVHIDAEKITKETVVYTELPERFTGRAGEIVESLSVEQLIQMSAGDPGKGQDAVLGSAGITVPGAAAETSSAASGEPWNLPSIALADGPAGLRLNQKYQVVDGEIVRENFMKSIEKGFFAEPSPEVGTAYYQFCTAIPVGTLLAQTWNAELVKEVGEMIGKEMELFQVTLWLAPGMNIHRNPLCGRNFEYYSEDPLLSGIMASAMTLGVQKVPGCGTTIKHFACNNQEDNRMGSDSVLSERALREIYLKGFEIAVKNSQPMSIMTSYNMINGVHAANCYDICTRAARDEWEFAGAVMTDWTTTFASPRGECTAAGCMRAGNDMVMPGIPKDHENIRRELEEGTLDIRELKRCICNTVNLILQSNRYENAVSYLEQFEGLDAYLSVERSN
As for B2, the Km in [4] was determined as 300 ± 40 µM; in data set [6] it was 230 ± 50 µM. Further, the kcat in data set [4] came to 20 ± 0.3 s⁻¹; in data set [5] it was 17 ± 0.3 s⁻¹; in data set [6] it was 12 ± 0.2 s⁻¹. In addition, the results for the kcat/Km in data set [4], in data set [5] and in data set [6] were 67000 M⁻¹ s⁻¹, 71000 M⁻¹ s⁻¹ and 52000 M⁻¹ s⁻¹, respectively.

B3: BpGH3-X62MLG (Blautia producta ATCC 27340 = DSM 2950) (protein)
chain: MENKYVIDWDKYAALARRAAAEGAVLLKNDNQALPLKKETISVFGRIQYHYYKSGTGSGGLVNAKYVIGIMDALQEEKDLTLDEELAAVYRSWIMEHPFDQGSGWAQEPWSQEEMPLDEKMVEEAAARSDTAVIVIGRTAGEDRDASAEKGSYLLTDLEEDMLEKVCRLFKKSIVVLNVGNIIDMKWVEKYNPSAVLYTWQGGQEGGHSAADVLTGRVNPCGKLADTIARDISDYPSTENFGGGDFDIYAEDIYVGYRYFETFARDKVLYPFGFGLSYTSFRTECGPIKRLDGETSVCVKVTNAGSCAGKEVVQMYVEPPQGKLGKPSRNLAAFAKTKCLQPGESQELVLKVTDYYISSYDDSGAAGFKSCYVLENGSYGIYVGTDVRGAEAAGSFYIPETIATSVCTEAAGPVRQFKRMRAKEGGALAWEEAPLRTHKMQERIHKEILPDITYTGNKGFTLGEVFDRDISLNEFLAQLSEEDLCCIVRGEGMCSPKVTPGTAAAFGGVTESLQKLGIPCGCCADGPSGIRMDCGTPAFSMPNGTCLACTFDTELSEELYEMEGAELRKNRIDTLLGPGINIHRNPLNGRNFEYFSEDPYLTGIMASAQLKGMARFGVTGTIKHFAANNQEYHRRLLDSVMSERALREIYLRGFEIAVKEGKAYSIMTTYGAINGLWTASNYDLLTTILRKEWGFEGMVMTDWWADLNDEGGQPSTDNLAAMVRSQNDVYMVTQDSLNNKDNLMESLKNGTLKRGALLRCAGNICRMLMRSPVMERTLGRMSEEEKKAGEVMAGEDKVDFDITYHKVQGSLVLDGTKIDTSKGNSVVYGILLDTFGSYKVRLKVKADSGELAQIPVSVFANGHLEGTVTINGTKGEWIEIEKTIGPLFGPHNYVRLYFAQSGMQIQTVTIELQEKMDRGF
Regarding B3, the Km in data set [7] turned out to be 260 ± 30 µM; in data set [8], 200 ± 30 µM; in [9] it was 250 ± 50 µM; in data set [10], 230 ± 40 µM; in [11], 450 ± 60 µM. The kcat in [7] amounted to 15 ± 0.2 s⁻¹; in [8] it was 8 ± 0.01 s⁻¹; in [10], 17 ± 0.3 s⁻¹; in [11] it was 19 ± 0.3 s⁻¹; in data set [12], 12 ± 0.2 s⁻¹; in data set [13], 12 ± 0.2 s⁻¹. Also, the kcat/Km in [7] was 59000 M⁻¹ s⁻¹; in data set [8] it was 38000 M⁻¹ s⁻¹; in [10], 73000 M⁻¹ s⁻¹; in [11], 43000 M⁻¹ s⁻¹; in data set [12], 48000 M⁻¹ s⁻¹; in data set [13] it was 51000 M⁻¹ s⁻¹.
